Experiments:
[1] = molecular target: T1, PTPRD S431L variant extracellular domain (human, UniProt P23468 21-1265); assay: extracellular interaction screen: pentameric PTPRD variant ECD on ECD-Fc prey (FIG. 5L)
T1 construct: extracellular domain; also called FN2 mutant
T1 sequence (looked up): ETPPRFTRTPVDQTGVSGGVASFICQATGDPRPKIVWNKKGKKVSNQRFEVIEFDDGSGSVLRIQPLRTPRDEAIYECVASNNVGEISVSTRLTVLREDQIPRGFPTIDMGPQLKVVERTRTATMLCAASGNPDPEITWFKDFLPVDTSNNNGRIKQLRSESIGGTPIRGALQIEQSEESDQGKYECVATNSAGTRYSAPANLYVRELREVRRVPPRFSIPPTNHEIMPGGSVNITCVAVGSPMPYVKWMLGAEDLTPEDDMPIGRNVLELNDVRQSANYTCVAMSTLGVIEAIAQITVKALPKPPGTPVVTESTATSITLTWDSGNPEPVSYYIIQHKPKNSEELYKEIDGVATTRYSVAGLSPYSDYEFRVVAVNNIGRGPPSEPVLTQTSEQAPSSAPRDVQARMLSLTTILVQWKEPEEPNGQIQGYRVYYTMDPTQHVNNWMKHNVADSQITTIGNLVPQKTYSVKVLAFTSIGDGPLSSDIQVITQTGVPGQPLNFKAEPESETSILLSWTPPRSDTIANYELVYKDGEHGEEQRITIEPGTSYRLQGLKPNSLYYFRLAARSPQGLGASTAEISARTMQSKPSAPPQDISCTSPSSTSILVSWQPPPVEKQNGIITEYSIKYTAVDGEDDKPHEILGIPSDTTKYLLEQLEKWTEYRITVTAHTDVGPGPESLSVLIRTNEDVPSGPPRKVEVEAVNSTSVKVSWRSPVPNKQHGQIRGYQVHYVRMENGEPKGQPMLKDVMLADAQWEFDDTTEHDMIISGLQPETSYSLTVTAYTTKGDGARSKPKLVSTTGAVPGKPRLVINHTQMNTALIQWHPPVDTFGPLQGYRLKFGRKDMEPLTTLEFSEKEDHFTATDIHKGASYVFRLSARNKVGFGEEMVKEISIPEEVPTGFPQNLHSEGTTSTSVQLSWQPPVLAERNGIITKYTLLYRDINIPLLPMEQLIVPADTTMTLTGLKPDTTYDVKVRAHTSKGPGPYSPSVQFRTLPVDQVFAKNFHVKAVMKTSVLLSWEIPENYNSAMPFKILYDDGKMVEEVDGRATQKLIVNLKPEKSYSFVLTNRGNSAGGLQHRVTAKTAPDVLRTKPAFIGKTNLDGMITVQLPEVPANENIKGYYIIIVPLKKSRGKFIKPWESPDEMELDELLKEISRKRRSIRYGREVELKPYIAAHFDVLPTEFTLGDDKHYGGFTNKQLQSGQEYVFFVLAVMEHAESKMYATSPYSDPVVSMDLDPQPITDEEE

[2] = molecular target: T2, PTPRD G285E variant extracellular domain (human, UniProt P23468 21-1265); assay: as above
T2 construct: extracellular domain; also called IG3 mutant
T2 sequence (looked up): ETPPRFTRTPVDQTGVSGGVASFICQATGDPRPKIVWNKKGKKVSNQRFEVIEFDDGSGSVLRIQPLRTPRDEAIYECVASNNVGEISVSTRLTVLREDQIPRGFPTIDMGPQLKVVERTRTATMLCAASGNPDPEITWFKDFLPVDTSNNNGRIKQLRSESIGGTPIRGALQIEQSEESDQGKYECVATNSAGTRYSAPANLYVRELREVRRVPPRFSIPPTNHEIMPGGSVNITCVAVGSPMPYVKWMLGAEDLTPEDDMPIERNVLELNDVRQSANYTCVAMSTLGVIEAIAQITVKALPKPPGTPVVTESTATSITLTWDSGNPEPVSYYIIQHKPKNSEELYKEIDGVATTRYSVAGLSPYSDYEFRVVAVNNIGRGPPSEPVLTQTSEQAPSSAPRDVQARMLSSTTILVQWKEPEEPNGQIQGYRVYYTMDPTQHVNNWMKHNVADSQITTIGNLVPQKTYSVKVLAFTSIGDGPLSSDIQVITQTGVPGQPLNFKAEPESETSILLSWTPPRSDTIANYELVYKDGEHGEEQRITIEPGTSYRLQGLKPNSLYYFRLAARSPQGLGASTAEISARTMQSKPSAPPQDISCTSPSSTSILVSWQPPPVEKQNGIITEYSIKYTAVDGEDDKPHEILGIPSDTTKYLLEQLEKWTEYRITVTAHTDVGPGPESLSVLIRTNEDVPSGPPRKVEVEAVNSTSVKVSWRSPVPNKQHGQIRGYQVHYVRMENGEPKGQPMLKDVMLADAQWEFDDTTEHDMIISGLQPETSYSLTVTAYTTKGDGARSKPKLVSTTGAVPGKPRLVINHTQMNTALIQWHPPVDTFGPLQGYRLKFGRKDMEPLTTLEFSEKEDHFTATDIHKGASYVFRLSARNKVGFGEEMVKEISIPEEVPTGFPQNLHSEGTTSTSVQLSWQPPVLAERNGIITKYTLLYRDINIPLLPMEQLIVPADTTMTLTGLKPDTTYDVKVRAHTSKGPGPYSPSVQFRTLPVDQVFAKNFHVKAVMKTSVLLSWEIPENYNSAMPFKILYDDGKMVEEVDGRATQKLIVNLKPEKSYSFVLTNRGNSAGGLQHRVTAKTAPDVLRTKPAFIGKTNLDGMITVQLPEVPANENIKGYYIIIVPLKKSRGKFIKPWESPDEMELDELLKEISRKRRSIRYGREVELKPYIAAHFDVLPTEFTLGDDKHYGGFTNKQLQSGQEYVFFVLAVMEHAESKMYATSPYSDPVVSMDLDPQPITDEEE

binding result [1]: no binding | binding result [2]: no binding
B1: LRRC4B extracellular domain (receptor, human, UniProt Q9NT99 36-576, looked up)
chain: AGGGGVAVTSAAGGGSPPATSCPVACSCSNQASRVICTRRDLAEVPASIPVNTRYLNLQENGIQVIRTDTFKHLRHLEILQLSKNLVRKIEVGAFNGLPSLNTLELFDNRLTTVPTQAFEYLSKLRELWLRNNPIESIPSYAFNRVPSLRRLDLGELKRLEYISEAAFEGLVNLRYLNLGMCNLKDIPNLTALVRLEELELSGNRLDLIRPGSFQGLTSLRKLWLMHAQVATIERNAFDDLKSLEELNLSHNNLMSLPHDLFTPLHRLERVHLNHNPWHCNCDVLWLSWWLKETVPSNTTCCARCHAPAGLKGRYIGELDQSHFTCYAPVIVEPPTDLNVTEGMAAELKCRTGTSMTSVNWLTPNGTLMTHGSYRVRISVLHDGTLNFTNVTVQDTGQYTCMVTNSAGNTTASATLNVSAVDPVAAGGTGSGGGGPGGSGGVGGGSGGYTYFTTVTVETLETQPGEEALQPRGTEKEPPGPTTDGVWGGGRPGDAAGPASSSTTAPAPRSSRPTEKAFTVPITDVTENALKDLDDVMKTTK
notes: extracellular domain; ECD-Fc prey; also called NGL-3; netrin-G ligand-3
